Assay results from patent publication US20060002929A1 (published 2006).
Where a chain is given by its changes, count along the chain named.

T1: 018-muOX40L (mouse, UniProt P43488)
T1 construct: also called mouse OX40L
T1 sequence (bead-bound control antigen, looked up): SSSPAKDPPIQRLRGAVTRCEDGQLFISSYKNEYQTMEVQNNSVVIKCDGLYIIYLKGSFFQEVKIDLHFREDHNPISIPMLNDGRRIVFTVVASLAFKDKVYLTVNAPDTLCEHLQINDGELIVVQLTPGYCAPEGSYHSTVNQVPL

B1: Ab A (antibody, V domains shown)
VH: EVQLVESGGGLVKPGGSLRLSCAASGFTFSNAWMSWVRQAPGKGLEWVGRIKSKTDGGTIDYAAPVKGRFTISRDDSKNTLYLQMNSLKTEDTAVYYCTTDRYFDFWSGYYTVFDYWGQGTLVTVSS
VL: DIQMTQSPSSLSASVGDRVTITCRASQGISNHLVWYQQKVGKVPKLLIYAASTLQSGVPSRFSGSGSGTDFTLTISSLQPEDVATYYCQKFNSAPFTFGPGTKVDIKR
notes: Human anti-OX40L monoclonal antibody from transgenic mice
B2: Ab E (antibody, V domains shown)
VH: EVQLVESGGGLVKPGGSLRLSCAASGFTFSNAWMSWVRQAPGKGLEWVGRIKRKTDGGTIDYAAPVKGRFTISRADSKNTLFLQMNSLITEDTAVYYCTISYYYDYSGYYYVDHWGQGTLVTVSS
VL: B1 VL with V40P, F91Y, F96L, P100G, D105E
notes: Human anti-OX40L monoclonal antibody
B3: Ab F (antibody, V domains shown)
VH: B2 VH
VL: B1 VL with V40P, F91Y, F96L, P100G, D105E
notes: as for B2
B4: Human Fc-OX40L (Fc fusion, UniProt P23510 51-183, looked up)
chain: QVSHRYPRIQSIKVQFTEYKKEKGFILTSQKEDEIMKVQNNSVIINCDGFYLISLKGYFSQEVNISLHYQKDEEPLFQLKKVRSVNSLMVASLTYKDKVYLNVTTDNTSLDDFHVNGGELILIHQNPGEFCVL
notes: Defined as 'the Fc domain of human IgG fused to human OX40L'; Made in 293T or COS cells; also called hFc-OX40L; HFc-OX40L; not shown: Fc domain of human IgG
B5: hOX40R-Fc (Fc fusion, human, UniProt P43489 29-214, looked up)
chain: LHCVGDTYPSNDRCCHECRPGNGMVSRCSRSQNTVCRPCGPGFYNDVVSSKPCKPCTWCNLRSGSERKQLCTATQDTVCRCRAGTQPLDSYKPGVDCAPCPPGHFSPGDNQACKPWTNCTLAGKHTLQPASNSSDAICEDRDPPATQPQETQGPPARPITVQPTEAWPRTSQGPSTRPVEVPGGRA
notes: Defined as 'the human IgG Fc domain fused to the human OX40 receptor'; also called hFc-OX40R; HFc-OX40R; not shown: Fc domain of human IgG
B6: Ab B (antibody, V domains shown)
VH: QVQLQESGPGLVKPSETLSLTCTVSGGSISTYYWNWIRQPAGKGLEWIGRIYISGSTNYNPSLKSRVTMSVDTSKNQFSLKLSSVTAADTAVYYCARDRVDIVATKGHYYYGMDVWGQGTTVTVSS
VL: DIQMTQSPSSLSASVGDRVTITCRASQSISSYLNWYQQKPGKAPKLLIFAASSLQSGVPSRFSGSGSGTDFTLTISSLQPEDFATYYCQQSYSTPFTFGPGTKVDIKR
notes: as for B2
B7: Ab C (antibody, V domains shown)
VH: QVQLVESGGGVVQPGRSLRLSCAASGFTFSFYGMHWVRQAPGKGLEWVAVIWYDGSNKYYADSVKGRFTISRDNSKNTLYLQMNSLRAEDTAVYYCARGGYDYVWGSYRRNSDFDYWGQGTLVTVSS
VL: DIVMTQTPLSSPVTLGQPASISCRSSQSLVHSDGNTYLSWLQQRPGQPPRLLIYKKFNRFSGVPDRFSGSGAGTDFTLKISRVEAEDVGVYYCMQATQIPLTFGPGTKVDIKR
notes: as for B2

Legend:
[1] = target: B4; assay: cell-based or functional assay
[2] = target: B4; assay: BIAcore, immobilized hFc-OX40L
[3] = target: B4; assay: BIAcore solution equilibrium: 0.2 nM antibody pre-mixed with 20-0.005 nM hFc-OX40L, free antibody read on immobilized hFc-OX40L
Procedure: The binding equilibrium of four of the antibodies was assessed on a BIACore chip as described above in Example 1 with the following modifications. HFc-OX40L was immobilized to the sensor chip at a high density of 8,000 RU. Serial 2.5-fold dilutions of hFc-OX40L were prepared in sample buffer so that the final concentration of hFc-OX40L, once mixed with an anti-OX40L antibody, ranged between 20 nM to 0.005 nM. Monoclonal anti-OX40L antibody candidates were mixed with each hFc-OX40L dilution in a total of 400 μl so that the final concentration of monoclonal antibody was 0.2 nM. Samples were incubated at room temperature for at least five hours to allow samples to reach equilibrium. Samples were then injected over the immobilized hFc-OX40L surface for 30 minutes at 10 μl/min. After the sample injection, the samples were allowed to dissociate for 3 minutes, and then the surface was regenerated by injecting 8 mM glycine, pH 3.0, 1 M NaCl for 30 seconds. The binding signals obtained were proportional to the free antibody in solution at equilibrium for a given concentration of ligand. Plotting the binding signal versus ligand concentration, and using the scientific graphing software program GraphPad Prizm, the EC₅₀ values for each antibody at a given concentration in the presence of varying concentrations of hFc-OX40L were calculated.

[4] = target: B4; assay: BIAcore solution equilibrium at 0.2 and 0.6 nM binder, dual-curve one-site fit (KinExA software)
Procedure: (§1) Specifically, BIACore chips were prepared as described above in Example 1, with the following modifications. HFc-OX40L was immobilized to the sensor chip at a high density of 8,000 RU. […] Samples were incubated at room temperature for at least five hours to allow samples to reach equilibrium. Samples were then injected over the immobilized hFc-OX40L surface for 30 minutes at 10 μl/min. After the sample injection, the samples were allowed to dissociate for 3 minutes, and then the surface was regenerated by injecting 8 mM glycine, pH 3.0, 1 M NaCl for 30 seconds. The binding signals, measured in RU, obtained were proportional to the free antibody in solution at equilibrium for a given concentration of ligand. The dissociation equilibrium constant (KD) was obtained from nonlinear regression analysis of the competition curves using a dual-curve one-site homogeneous binding model (KinExA software v. 2.3, Sapidyne Instruments Inc., Boise Id.).

[5] = target: T1, 018-muOX40L; assay: Luminex bead assay: antigen loaded on biotin beads, antibody titrated, detection anti-huIgG-PE [panel Ab F]
[6] = target: B5; assay: BIAcore solution equilibrium at 0.2 and 0.6 nM binder, dual-curve one-site fit (KinExA software)
Procedure: as §1

[7] = target: T1, 018-muOX40L; assay: Luminex bead assay: antigen loaded on biotin beads, antibody titrated, detection anti-huIgG-PE [panel Ab C]

IL-2 Inhibition (IC50 [nM]) [1] [nM] | EC50 [2] [nM] | EC50 [3] [nM] | Kd [4] [nM] | binding result [5] | Kd [6] [nM] | binding result [7] | Binder
0.32 | 1 |  |  |  |  |  | B1
0.58 | 0.69 | 0.686 |  |  |  |  | B2
 |  | 0.402 | 0.12 | no binding (tested: 100 nM) |  |  | B3
 |  |  |  |  | 1 |  | B4
5.2 | 1 |  |  |  |  |  | B5
0.49 | 0.6 |  |  |  |  |  | B6
2 | 0.1 | 0.101 | 0.033 |  |  | no binding (tested: 100 nM) | B7
